Test results from US20150344587A1.

Tests used:
CD20 [1] = target: CD20 (UniProt P11836); assay: binding to CD20 after 37° C. for 3 days; method not stated
CD20 [2] = target: CD20 (UniProt P11836); assay: binding to CD20 after 37° C. for 7 days; method not stated

(Fucα1,6)GlcNAc-Rituximab (antibody)
loss of binding affinity (CD20 [1]): 10% | loss of binding affinity (CD20 [2]): 20%
